Laboratory results: patent US20060269536A1 (UNIVERSITE DE LAUSANNE, published 2006)
Changes are numbered by the printed parent chain.

B1: rACT8.20 (designed binder)
chain: MRGSHHHHHHSRHPNSPLDEENLTQENQDRGTHVDLGLASANVDFAFSLYKQLVLKAPDKNVIFSPLSISTALAFLSLGAHNTTLTEILKGLKFNLTETSEAEIHQSFQHLLRTLNQSSDELQLSMGNAMFVKEQLSLLDRFTEDAKRLYGSEAFATDFQDSAAAKKLINDYVKNGTRGKITDLIKDLDSQTMMVLVNYIFFKAKWEMPFDPQDTHQSRFYLSKKKWVMVPMMSLHHLTIPYFRDEELSCTVVELKYTGNASALFILPDQDKMEEVEAMLLPETLKRWRDSLEFREIGELYLPKFSISRDYNLNDILLQLGIEEAFTSKADLSGITGARNLAVSQVVHKAVLDVFEEGTEASAATAVKITLRSRAVETRTIVRFNRPFLMIIVPTDTQNIFFMSKVTNPKQA
B2: ACT5.18 (designed binder)
chain: B1 chain with L371E, S373V, R374S, A375P
B3: rACT6.1 (designed binder)
chain: B1 chain with T370M, L371T, R374N
notes: N-terminal His tag, E. coli TG1; also called MD61; MD 61
B4: rACT6.2 (designed binder)
chain: B1 chain with L371R, R374I, A375D
notes: Recombinant human α1-antichymotrypsin variant, RSL P3-P'3 = TRRSID; N-terminal His tag, E. coli TG1; also called MD62; MD 62
B5: rACT6.7 (designed binder)
chain: B1 chain with T370K, S373T, R374T, A375L
B6: rACT8.3 (designed binder)
chain: B1 chain with T370R, L371G, R374E, A375L
B7: rACTWT (recombinant wild type α1-antichymotrypsin) (other, human)
chain: HHHHHHNSPLDEENLTQENQDRGTHVDLGLASANVDFAFSLYKQLVLKAPDKNVIFSPLSISTALAFLSLGAHNTTLTEILKGLKFNLTETSEAEIHQSFQHLLRTLNQSSDELQLSMGNAMFVKEQLSLLDRFTEDAKRLYGSEAFATDFQDSAAAKKLINDYVKNGTRGKITDLIKDLDSQTMMVLVNYIFFKAKWEMPFDPQDTHQSRFYLSKKKWVMVPMMSLHHLTIPYFRDEELSCTVVELKYTGNASALFILPDQDKMEEVEAMLLPETLKRWRDSLEFREIGELYLPKFSISRDYNLNDILLQLGIEEAFTSKADLSGITGARNLAVSQVVHKAVLDVFEEGTEASAATAVKITLLSALVETRTIVRFNRPFLMIIVPTDTQNIFFMSKVTNPKQA
notes: Serpin; Expressed in E. coli TG1 from pQE-9 with an N-terminal His tag; also called ACTWT (LL↓SA); wild type rACT
B8: rACTPCI (MD CI) (designed binder)
chain: B1 chain with L371F, R374A, A375L

These binders were tested against human glandular kallikrein hK2 (human, UniProt P20151 25-261) (assay: cell-based or functional assay).

Binder	Inhibition % (residual enzyme activity, fluorescent substrate)
B1	95%
B2	73%
B3	100%
B4	100%
B5	100%
B6	100%
B7	0%

These binders were tested against T1, Human chymotrypsin (Chtr) (human, UniProt P17538 19-263) (assay: cell-based or functional assay).
T1 sequence (P17538 19-263): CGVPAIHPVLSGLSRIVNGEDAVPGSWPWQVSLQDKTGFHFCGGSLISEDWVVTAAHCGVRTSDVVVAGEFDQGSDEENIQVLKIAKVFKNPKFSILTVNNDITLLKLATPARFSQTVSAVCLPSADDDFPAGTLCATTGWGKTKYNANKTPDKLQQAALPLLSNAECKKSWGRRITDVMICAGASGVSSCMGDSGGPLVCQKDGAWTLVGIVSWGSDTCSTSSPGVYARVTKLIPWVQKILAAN

Binder	Inhibition % (residual enzyme activity, fluorescent substrate)
B1	66%
B2	0%
B3	0%
B4	0%
B5	0%
B6	0%
B7	100%

The binders below were run against human plasma kallikrein (PK) (human, UniProt P03952 20-638) (assay: cell-based or functional assay).
Chain of human plasma kallikrein (PK) (P03952 20-638 limits assumed): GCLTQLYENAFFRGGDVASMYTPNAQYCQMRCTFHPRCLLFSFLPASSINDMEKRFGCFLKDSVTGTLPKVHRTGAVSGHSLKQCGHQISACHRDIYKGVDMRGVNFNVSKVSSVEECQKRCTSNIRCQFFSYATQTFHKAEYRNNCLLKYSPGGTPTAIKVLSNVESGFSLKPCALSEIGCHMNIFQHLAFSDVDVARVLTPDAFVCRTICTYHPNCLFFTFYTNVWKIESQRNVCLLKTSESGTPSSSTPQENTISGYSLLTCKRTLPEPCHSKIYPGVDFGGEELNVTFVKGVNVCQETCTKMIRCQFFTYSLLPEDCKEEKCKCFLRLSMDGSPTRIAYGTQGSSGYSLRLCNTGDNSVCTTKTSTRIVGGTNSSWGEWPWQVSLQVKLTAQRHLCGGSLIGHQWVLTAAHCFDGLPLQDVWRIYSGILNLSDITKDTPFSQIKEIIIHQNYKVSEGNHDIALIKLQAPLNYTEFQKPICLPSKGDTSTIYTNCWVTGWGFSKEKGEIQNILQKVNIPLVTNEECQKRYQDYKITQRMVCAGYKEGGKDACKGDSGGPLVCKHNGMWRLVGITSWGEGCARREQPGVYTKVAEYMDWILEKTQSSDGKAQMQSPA

Binder	Inhibition % (residual enzyme activity, fluorescent substrate)
B1	54%
B2	0%
B3	100%
B4	100%
B5	36%
B6	0%
B7	0%

The binders below were run against T2, human neutrophil elastase (HNE) (human, UniProt P08246 30-247, limits assumed) (assay: cell-based or functional assay).
T2 sequence (looked up): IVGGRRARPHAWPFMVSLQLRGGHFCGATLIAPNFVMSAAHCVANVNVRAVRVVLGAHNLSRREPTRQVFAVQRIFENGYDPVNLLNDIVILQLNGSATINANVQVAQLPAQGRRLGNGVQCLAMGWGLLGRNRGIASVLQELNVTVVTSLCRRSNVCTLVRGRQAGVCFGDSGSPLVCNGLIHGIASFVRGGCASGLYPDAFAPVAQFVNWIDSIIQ

Binder	Inhibition % (residual enzyme activity, fluorescent substrate)
B1	30%
B2	0%
B3	60%
B4	0%
B5	0%
B6	0%
B7	15%

What follows are binders tested against T3, hK3 (PSA) (human, UniProt P07288 25-261) (assay: cell-based or functional assay).
T3 sequence (P07288 25-261 limits assumed): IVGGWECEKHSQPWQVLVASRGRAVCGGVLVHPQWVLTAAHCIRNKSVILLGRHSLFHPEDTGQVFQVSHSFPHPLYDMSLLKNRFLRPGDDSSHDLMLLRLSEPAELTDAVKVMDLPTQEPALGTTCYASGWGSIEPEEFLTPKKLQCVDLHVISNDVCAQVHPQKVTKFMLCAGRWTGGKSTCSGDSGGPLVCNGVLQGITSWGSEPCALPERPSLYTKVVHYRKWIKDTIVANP

Binder	Inhibition % (residual enzyme activity, CFP-TFRSA-YFP substrate, 90 min at 37°)
B2	0%
B3	0%
B4	0%
B5	0%
B6	0%
B7	80%

What follows are binders tested against human kallikrein hK1 (human, UniProt P06870 25-262) (assay: cell-based or functional assay).
Chain of human kallikrein hK1 (P06870 25-262): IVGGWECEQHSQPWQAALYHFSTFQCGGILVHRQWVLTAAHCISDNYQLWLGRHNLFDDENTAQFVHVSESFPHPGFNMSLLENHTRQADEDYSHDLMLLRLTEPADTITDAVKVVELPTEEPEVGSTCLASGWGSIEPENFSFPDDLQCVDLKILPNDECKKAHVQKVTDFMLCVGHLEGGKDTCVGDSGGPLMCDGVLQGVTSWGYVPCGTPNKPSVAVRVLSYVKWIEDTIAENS

Binder	Inhibition % (residual enzyme activity, fluorescent substrate)
B1	0%
B2	0%
B3	0%
B4	0%
B5	0%
B6	0%
B7	0%

These binders were tested against urokinase plasminogen activator (uPA) (UniProt P00749 21-431, limits assumed) (assay: cell-based or functional assay).

Binder	Inhibition % (residual enzyme activity, fluorescent substrate)
B1	0%
B2	0%
B3	0%
B4	0%
B5	0%
B6	0%
B7	0%

Each binder was assayed against Trypsin (assay: inhibitory profile of MDCI; method as in example 1).

Binder	kon
B8	1.13e+06 M⁻¹ s⁻¹

What follows are binders tested against T3, hK3 (PSA) (assay: Western blot of hK3-ACT complex, anti-His antibody (FIG. 6B)).
Description: For each variants of ACT, 1 μg of inhibitor was incubated with 100 ng of either hK2 or hK3 during 1 hour at 37° C. under physiological conditions.

Binder	binding result
B3	no binding
B4	no binding

The binders below were run against T1, Human chymotrypsin (Chtr) (assay: residual protease activity against [I]o/[E]o, linear regression, x intercept).
Description: The stoichiometry of inhibition (SI) values were determined for the inhibition of rACTWT and its variants with hK2 and different other enzymes. An initial test was made with a molar excess of rACT (100 fold) over hK2, PSA, hK1, chymotrypsin (Chtr), plasma kallikrein (PK), urokinase (uPA) and human neutrophile elastase (HNE) enzymes. The reaction was carried out for 30 min at 25° C. (90 min at 37° C. for PSA) in reaction buffer (50 mM Tris pH 7.5, 150 mM NaCl, 0.05% Triton X-100, 0.01% BSA) and residual enzyme activity was measured by adding fluorescent substrates (Z-Phe-Arg-AMC for hK1, hK2 and PK, Suc-Ala-Ala-Pro-Phe-AMC for Chtr, Z-Gly-Gly-Arg-AMC for uPA, MeOSuc-Ala-Ala-Pro-Val-AMC for HNE, and CFP-TFRSA-YFP for PSA). Activity of enzyme in presence of inhibitors was compared to uninhibited reaction. For reactions where an inhibition was observed, SI was determined by incubating different concentrations of recombinant serpins. […]
In order to determine the SI values of all the recombinant variants, Applicants have incubated hK2 (5 nM) with different concentrations (6.25-500 nM) of rACT_{8.20} (x), rACT_{6.2} (□), rACT_{8.3} (Δ), rACT_{6.7} (⋄), rACT_{6.1} ( ), rACT_{5.18} (∘), rACTWT (+), at 25° C. for 30 min in reaction buffer. […] The SI was determined using linear regression analysis to extrapolate the I/E ratio (i.e. the x intercept).

Binder	SI (stoichiometry of inhibition)
B7	2
